The source of these data is US12630600B2 (MEDIMMUNE LIMITED, priority 2022, dated 2026).

Starred links: 1 amine or outer side, 2 acyl side, 3 side chain; linkers in the order of their positions; H or OH if unused. Non-standard residues stand in square brackets, D forms with d. Groups on a side chain read outwards from the residue. No end group written: not given here. *: point of attachment. C20 diacid = O=C(O)CCCCCCCCCCCCCCCCCCC(=O)*; C18 diacid = O=C(O)CCCCCCCCCCCCCCCCC(=O)*; γGlu = O=C(O)[C@H](CCC(=O)[*:2])N[*:1]; αMeF = C[C@](N)(Cc1ccccc1)C(=O)O; AEEA = NCCOCCOCC(=O)O; Aib = CC(C)(N)C(=O)O

One assay deals with human GLP-1 receptor (human, UniProt P43220). Briefly: cell-based or functional assay.
The next assay addresses human glucagon receptor (human, UniProt P47871). Briefly: cell-based or functional assay.

B1: Peptide 234 (peptide)
peptide: H[Aib]HGS[αMeF]TSDVSK[αMeF]LDSRAAK([AEEA-AEEA-γGlu-γGlu-C20 diacid])D[αMeF]VE[Aib]IANT-NH2
modifications: N-terminus assumed
SMILES: CC[C@H](C)[C@H](NC(=O)C(C)(C)NC(=O)[C@H](CCC(=O)O)NC(=O)[C@@H](NC(=O)[C@](C)(Cc1ccccc1)NC(=O)[C@H](CC(=O)O)NC(=O)[C@H](CCCCNC(=O)COCCOCCNC(=O)COCCOCCNC(=O)CC[C@H](NC(=O)CC[C@H](NC(=O)CCCCCCCCCCCCCCCCCCC(=O)O)C(=O)O)C(=O)O)NC(=O)[C@H](C)NC(=O)[C@H](C)NC(=O)[C@H](CCCNC(=N)N)NC(=O)[C@H](CO)NC(=O)[C@H](CC(=O)O)NC(=O)[C@H](CC(C)C)NC(=O)[C@](C)(Cc1ccccc1)NC(=O)[C@H](CCCCN)NC(=O)[C@H](CO)NC(=O)[C@@H](NC(=O)[C@H](CC(=O)O)NC(=O)[C@H](CO)NC(=O)[C@@H](NC(=O)[C@](C)(Cc1ccccc1)NC(=O)[C@H](CO)NC(=O)CNC(=O)[C@H](Cc1c[nH]cn1)NC(=O)C(C)(C)NC(=O)[C@@H](N)Cc1c[nH]cn1)[C@@H](C)O)C(C)C)C(C)C)C(=O)N[C@@H](C)C(=O)N[C@@H](CC(N)=O)C(=O)N[C@H](C(N)=O)[C@@H](C)O
With B1, in the assay with human GLP-1 receptor, the “hGLP-1R EC50 (pM)” value was 68 pM. Moreover, the “hGluc-R EC50 (pM)” value in the assay with human glucagon receptor was determined as 1290 pM.

B2: Peptide 230 (peptide)
peptide: H[Aib]HGS[αMeF]TSDVSK[αMeF]LDSRAAKD[αMeF]VQ[Aib]IANT-NH2
modifications: not fully specified (residue 20)
With B2, the “hGLP-1R EC50 (pM)” value with human GLP-1 receptor worked out at 170 pM. Further, the “hGluc-R EC50 (pM)” value in the assay with human glucagon receptor is 37.1 pM.

B3: Peptide 232 (peptide)
peptide: H[Aib]HGS[αMeF]TSDVSK[αMeF]LDSRAAKD[αMeF]VQ[Aib]IANT-NH2
modifications: not fully specified (residue 20)
For B3, in the assay with human GLP-1 receptor, the “hGLP-1R EC50 (pM)” value amounted to 110 pM. The “hGluc-R EC50 (pM)” value in the assay with human glucagon receptor came out at 1020 pM.

B4: Peptide 225 (peptide)
peptide: H[Aib]HGS[αMeF]TSDVSK[αMeF]LDSRAAK([AEEA-AEEA-γGlu-C18 diacid])D[αMeF]VQ[Aib]IANT-NH2
modifications: N-terminus assumed
SMILES: CC[C@H](C)[C@H](NC(=O)C(C)(C)NC(=O)[C@H](CCC(N)=O)NC(=O)[C@@H](NC(=O)[C@](C)(Cc1ccccc1)NC(=O)[C@H](CC(=O)O)NC(=O)[C@H](CCCCNC(=O)COCCOCCNC(=O)COCCOCCNC(=O)CC[C@H](NC(=O)CCCCCCCCCCCCCCCCC(=O)O)C(=O)O)NC(=O)[C@H](C)NC(=O)[C@H](C)NC(=O)[C@H](CCCNC(=N)N)NC(=O)[C@H](CO)NC(=O)[C@H](CC(=O)O)NC(=O)[C@H](CC(C)C)NC(=O)[C@](C)(Cc1ccccc1)NC(=O)[C@H](CCCCN)NC(=O)[C@H](CO)NC(=O)[C@@H](NC(=O)[C@H](CC(=O)O)NC(=O)[C@H](CO)NC(=O)[C@@H](NC(=O)[C@](C)(Cc1ccccc1)NC(=O)[C@H](CO)NC(=O)CNC(=O)[C@H](Cc1c[nH]cn1)NC(=O)C(C)(C)NC(=O)[C@@H](N)Cc1c[nH]cn1)[C@@H](C)O)C(C)C)C(C)C)C(=O)N[C@@H](C)C(=O)N[C@@H](CC(N)=O)C(=O)N[C@H](C(N)=O)[C@@H](C)O
For B4, the “hGLP-1R EC50 (pM)” value in the assay with human GLP-1 receptor is 34.9 pM. Further, in the assay with human glucagon receptor, the “hGluc-R EC50 (pM)” value amounted to 145 pM.

B5: Peptide 228 (peptide)
peptide: H[Aib]HGS[αMeF]TSDVSK[αMeF]LDSRAAKD[αMeF]IA[Aib]IANT-NH2
modifications: not fully specified (residue 20)
In the case of B5, the “hGLP-1R EC50 (pM)” value in the assay with human GLP-1 receptor turned out to be 200 pM. For the same molecule, in the assay with human glucagon receptor, the “hGluc-R EC50 (pM)” value stood at 177 pM.

B6: Peptide 227 (peptide)
peptide: H[Aib]HGS[αMeF]TSDVSK[αMeF]LDSRAAK([AEEA-AEEA-γGlu-C18 diacid])D[αMeF]VE[Aib]IANT-NH2
B6: the “hGLP-1R EC50 (pM)” value with human GLP-1 receptor was 70.5 pM. In addition, in the assay with human glucagon receptor, the “hGluc-R EC50 (pM)” value was found to be 27.2 pM.
